Laboratory results from patent US20210115458.
Like-named read-outs stand apart in the source and are kept apart here.

Test system: T1, JUL1 (bead-immobilized for Kd assay) (Arabidopsis thaliana)
T1 sequence: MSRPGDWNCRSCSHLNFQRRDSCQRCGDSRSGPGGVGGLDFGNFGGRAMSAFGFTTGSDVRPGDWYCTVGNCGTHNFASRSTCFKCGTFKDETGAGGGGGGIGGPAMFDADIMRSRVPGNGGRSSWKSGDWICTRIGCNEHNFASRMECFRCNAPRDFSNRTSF
Settings: FAM-RNA bead fluorescence assay

Substance: SMXL5 5' UTR G-quadruplex-forming motif
- Kd (with potassium (folded G4)): 230 nM
- Kd (without potassium): 130 nM
